The target in experiment [1] is NanoLuc-VEGFR2 (UniProt P35968). Briefly: FRET or BRET; NanoBRET saturation: live HEK293T cells stably expressing the N-terminal NanoLuc receptor; increasing fluorescent VEGF with or without 100 nM unlabelled VEGF; 60 min, 37°C, HBSS/0.1% BSA.
For another experiment, the target named is VEGF121a-TMR. The experiment is described as follows: fluorescence SDS-PAGE with and without DTT; purified VEGF-TMR isoforms in the presence or absence of 100 mM DTT; dimer in non-reducing conditions.
Experiment [2] addresses NanoLuc-VEGFR2 (UniProt P35968). Briefly: FRET or BRET; NanoBRET kinetics: live HEK293T cells with NanoLuc receptor, furimazine 5 min before 1-20 nM fluorescent VEGF, read every 30 s at 37°C; global fit of five concentrations; KD as koff/kon. Background: Bioluminescence resonance energy transfer reports proximity on the nanometre scale.
For experiment [3], the target named is NanoLuc-NRP1 (UniProt O14786). The experiment is described as follows: FRET or BRET; NanoBRET full displacement: live HEK293T cells with NanoLuc receptor; increasing unlabelled VEGF (R&D Systems) added together with five fixed concentrations of fluorescent VEGF; 60 min, 37°C, HBSS/0.1% BSA.
UniProt O14786, sequence (O14786 22-923): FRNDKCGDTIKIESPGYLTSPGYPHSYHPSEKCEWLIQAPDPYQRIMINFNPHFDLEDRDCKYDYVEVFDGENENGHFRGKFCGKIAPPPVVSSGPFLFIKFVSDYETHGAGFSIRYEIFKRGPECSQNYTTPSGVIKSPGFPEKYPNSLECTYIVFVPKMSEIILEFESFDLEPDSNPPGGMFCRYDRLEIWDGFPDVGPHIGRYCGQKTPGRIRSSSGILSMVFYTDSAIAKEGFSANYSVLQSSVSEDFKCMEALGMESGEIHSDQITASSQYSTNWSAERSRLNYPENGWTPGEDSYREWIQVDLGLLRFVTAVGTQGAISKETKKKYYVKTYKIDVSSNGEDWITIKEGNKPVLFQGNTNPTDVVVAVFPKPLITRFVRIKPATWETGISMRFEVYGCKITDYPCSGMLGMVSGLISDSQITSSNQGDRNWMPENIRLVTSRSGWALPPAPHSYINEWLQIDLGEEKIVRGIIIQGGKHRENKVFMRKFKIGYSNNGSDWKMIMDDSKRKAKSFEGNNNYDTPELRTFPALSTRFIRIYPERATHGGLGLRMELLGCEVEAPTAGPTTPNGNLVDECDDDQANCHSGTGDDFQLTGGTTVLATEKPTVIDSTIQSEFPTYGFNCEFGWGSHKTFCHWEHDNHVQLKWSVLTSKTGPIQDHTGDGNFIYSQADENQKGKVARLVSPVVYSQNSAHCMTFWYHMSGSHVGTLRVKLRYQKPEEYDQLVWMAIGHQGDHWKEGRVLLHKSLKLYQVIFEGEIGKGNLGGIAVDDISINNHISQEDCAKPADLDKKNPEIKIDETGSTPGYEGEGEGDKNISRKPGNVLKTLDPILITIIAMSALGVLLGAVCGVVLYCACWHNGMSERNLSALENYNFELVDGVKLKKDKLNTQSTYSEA
The target of experiment [4] is NanoLuc-NRP1 (UniProt O14786). Briefly: FRET or BRET; NanoBRET saturation: live HEK293T cells stably expressing the N-terminal NanoLuc receptor; increasing fluorescent VEGF with or without 100 nM unlabelled VEGF; 60 min, 37°C, HBSS/0.1% BSA.
The target of experiment [5] is NanoLuc-NRP1 (UniProt O14786). The experiment is described as follows: FRET or BRET; NanoBRET kinetics: live HEK293T cells with NanoLuc receptor, furimazine 5 min before 1-20 nM fluorescent VEGF, read every 30 s at 37°C; global fit of five concentrations; KD as koff/kon.
Another experiment has as its target VEGF165b-TMR. The experiment is described as follows: fluorescence SDS-PAGE with and without DTT; purified VEGF-TMR isoforms in the presence or absence of 100 mM DTT; dimer in non-reducing conditions.
Experiment [6] has as its target NanoLuc-VEGFR2 (UniProt P35968).

UniProt P35968, sequence (P35968 20-1356): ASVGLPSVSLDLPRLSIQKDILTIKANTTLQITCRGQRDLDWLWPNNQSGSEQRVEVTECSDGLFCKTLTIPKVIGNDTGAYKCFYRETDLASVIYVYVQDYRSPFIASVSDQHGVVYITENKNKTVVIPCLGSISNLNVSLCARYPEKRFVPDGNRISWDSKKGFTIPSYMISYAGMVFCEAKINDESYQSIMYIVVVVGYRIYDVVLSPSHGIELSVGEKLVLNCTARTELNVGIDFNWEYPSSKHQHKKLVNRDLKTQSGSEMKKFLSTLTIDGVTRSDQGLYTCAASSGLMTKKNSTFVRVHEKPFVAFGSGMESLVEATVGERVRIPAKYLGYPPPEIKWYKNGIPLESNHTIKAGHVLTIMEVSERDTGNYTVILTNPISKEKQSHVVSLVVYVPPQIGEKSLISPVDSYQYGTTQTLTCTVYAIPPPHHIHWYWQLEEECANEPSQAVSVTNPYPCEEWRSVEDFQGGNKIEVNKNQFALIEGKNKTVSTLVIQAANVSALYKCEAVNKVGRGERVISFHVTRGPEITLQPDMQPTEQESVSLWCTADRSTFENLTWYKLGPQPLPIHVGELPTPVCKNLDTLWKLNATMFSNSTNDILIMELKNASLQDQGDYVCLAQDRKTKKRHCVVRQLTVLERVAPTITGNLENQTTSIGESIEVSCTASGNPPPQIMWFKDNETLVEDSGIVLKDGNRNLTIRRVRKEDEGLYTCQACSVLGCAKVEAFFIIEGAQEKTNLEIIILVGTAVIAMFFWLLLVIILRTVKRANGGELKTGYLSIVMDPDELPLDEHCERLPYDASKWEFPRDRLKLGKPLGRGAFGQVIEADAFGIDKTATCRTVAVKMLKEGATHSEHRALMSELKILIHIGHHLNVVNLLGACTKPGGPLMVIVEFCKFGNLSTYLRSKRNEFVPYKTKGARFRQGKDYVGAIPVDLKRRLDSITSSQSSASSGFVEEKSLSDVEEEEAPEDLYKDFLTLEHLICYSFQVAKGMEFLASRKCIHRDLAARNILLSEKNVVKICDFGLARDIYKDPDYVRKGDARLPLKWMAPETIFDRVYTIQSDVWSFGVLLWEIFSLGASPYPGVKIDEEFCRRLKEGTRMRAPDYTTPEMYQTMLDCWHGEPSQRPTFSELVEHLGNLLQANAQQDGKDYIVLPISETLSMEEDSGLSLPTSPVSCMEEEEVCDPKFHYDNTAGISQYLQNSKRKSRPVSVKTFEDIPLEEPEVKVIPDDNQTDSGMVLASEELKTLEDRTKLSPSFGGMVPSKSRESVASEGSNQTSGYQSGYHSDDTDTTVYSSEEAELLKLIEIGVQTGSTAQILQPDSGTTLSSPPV

As a reminder, the Kd is the equilibrium constant for the complex coming apart. Lower therefore signals tighter binding. The stoichiometry N is a count of units in the complex or per binding partner. Broadly, the koff is the first-order rate constant of dissociation. High values mean fast dissociation, low ones slow dissociation. By kon is commonly meant the rate constant with which the complex forms. The substance VEGF121a-TMR (ligand) displayed a Kd in the experiment with NanoLuc-VEGFR2 [1] of 5.54 nM. Further, the stoichiometry N in the experiment with VEGF121a-TMR came out at 2. In the experiment with NanoLuc-VEGFR2 [2], this substance registered a Kd of 5.75 nM, a koff of 0.000833 s⁻¹ and a kon of 142000 M⁻¹ s⁻¹.
What is called Ki is the dissociation constant of the complex between target and ligand, obtained from inhibition or displacement. What is called pKi is the negative decadic logarithm of the Ki, by convention in mol/L. In the experiment with NanoLuc-NRP1 [3], VEGF165a (ligand) returned a Ki of 0.1 nM and a pKi of 9.54.
Regarding VEGF165a-TMR (ligand), the Kd amounted to 2.03 nM with NanoLuc-VEGFR2 [1]; 4.41 nM in the experiment with NanoLuc-NRP1 [4]; 1.11 nM with NanoLuc-NRP1 [3]; 6.64 nM with NanoLuc-VEGFR2 [2]; 4.95 nM in the experiment with NanoLuc-NRP1 [5]. In addition, the koff was 0.001 s⁻¹ in the experiment with NanoLuc-VEGFR2 [2] and 0.00433 s⁻¹ with NanoLuc-NRP1 [5]. The kon with NanoLuc-VEGFR2 [2] was determined as 257000 M⁻¹ s⁻¹; in the experiment with NanoLuc-NRP1 [5], 1.18e+06 M⁻¹ s⁻¹.
On to VEGF165b-TMR (ligand), for which the Kd with NanoLuc-VEGFR2 [1] came out at 9.53 nM. For the same substance, the stoichiometry N with VEGF165b-TMR came out at 2. In the experiment with NanoLuc-VEGFR2 [2], this substance came in with a Kd of 11.3 nM, a koff of 0.001 s⁻¹ and a kon of 122000 M⁻¹ s⁻¹. Also, in the experiment with NanoLuc-VEGFR2 [6], the pEC50 of the NFAT reporter gene response, as told again in the discussion with another number came to 8.28.

For the origin of these results see publication PMC6200776.
